# Test results: patent US20260167699A1 (Chugai, published 2026)
# Where a chain is given by its changes, count along the chain named.
# T1: FcγRIIa(R) extracellular domain with C-terminal His tag (human, UniProt P12318 34-217)
# T1 construct: extracellular domain; R131 allotype; also called 2aR; CD32
# T1 sequence: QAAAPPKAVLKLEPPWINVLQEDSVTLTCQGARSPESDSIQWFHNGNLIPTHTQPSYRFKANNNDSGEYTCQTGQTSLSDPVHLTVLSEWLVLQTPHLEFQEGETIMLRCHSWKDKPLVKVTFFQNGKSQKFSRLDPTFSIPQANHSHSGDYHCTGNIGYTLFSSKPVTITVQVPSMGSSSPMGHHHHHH
# T2: FcγRIIa(H) extracellular domain with C-terminal His tag (human, UniProt P12318 34-217)
# T2 construct: extracellular domain; H131 allotype; also called 2aH; CD32
# T2 sequence: T1 sequence with R134H
# T3: FcγRIIb extracellular domain with C-terminal His tag (human, UniProt P31994 43-217)
# T3 construct: extracellular domain; also called 2b; CD32
# T3 sequence: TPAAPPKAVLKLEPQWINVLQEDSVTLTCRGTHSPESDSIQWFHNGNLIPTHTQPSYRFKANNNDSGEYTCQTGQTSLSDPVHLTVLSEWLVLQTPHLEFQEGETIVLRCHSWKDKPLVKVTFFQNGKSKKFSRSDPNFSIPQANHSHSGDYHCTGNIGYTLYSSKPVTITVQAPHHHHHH
# B1: GpH7-A5/GpH7-B3 variant E333_18N/GpL16-k0 (antibody, human IgG1, kappa)
# heavy 1: not shown
# heavy 2: not shown
# light: DIVMTQSPLSLPVTPGEPASISCQASESLVHSNRNTYLHWYLQKPGQSPQLLIYKVSNRFSGVPDRFSGSGSGTDFTLKISRVEAEDVGVYYCSQNTHVPPTFGQGTKVEIERTVAAPSVFIFPPSDEQLKSGTASVVCLLNNFYPREAKVQWKVDNALQSGNSQESVTEQDSKDSTYSLSSTLTLSKADYEKHKVYACEVTHQGLSSPVTKSFNRGEC
# notes: heterodimerized IgG1 (He Ab), mutation in one H chain only; also called He Ab
# B2: GpH7-A5/GpH7-B3 variant I332_08L/GpL16-k0 (antibody, human IgG1, kappa)
# heavy 1: not shown
# heavy 2: not shown
# light: B1 light
# notes: as for B1
# B3: GpH7-A5/GpH7-B3 variant I332_01G/GpL16-k0 (antibody, human IgG1, kappa)
# heavy 1: not shown
# heavy 2: not shown
# light: B1 light
# notes: as for B1
# B4: GpH7-A5/GpH7-B3 variant E333_19Q/GpL16-k0 (antibody, human IgG1, kappa)
# heavy 1: not shown
# heavy 2: not shown
# light: B1 light
# notes: as for B1
# B5: GpH7-A5/GpH7-B3 variant I332_04F/GpL16-k0 (antibody, human IgG1, kappa)
# heavy 1: not shown
# heavy 2: not shown
# light: B1 light
# notes: as for B1
# B6: GpH7-A5/GpH7-B3 variant I332_03V/GpL16-k0 (antibody, human IgG1, kappa)
# heavy 1: not shown
# heavy 2: not shown
# light: B1 light
# notes: as for B1
# B7: GpH7-A5/GpH7-B3 variant I332_05P/GpL16-k0 (antibody, human IgG1, kappa)
# heavy 1: not shown
# heavy 2: not shown
# light: B1 light
# notes: as for B1
# B8: GpH7-A5/GpH7-B3 variant I332_06M/GpL16-k0 (antibody, human IgG1, kappa)
# heavy 1: not shown
# heavy 2: not shown
# light: B1 light
# notes: as for B1
# B9: GpH7-A5/GpH7-B3 variant I332_12R/GpL16-k0 (antibody, human IgG1, kappa)
# heavy 1: not shown
# heavy 2: not shown
# light: B1 light
# notes: as for B1
# B10: GpH7-A5/GpH7-B3 variant I332_10E/GpL16-k0 (antibody, human IgG1, kappa)
# heavy 1: not shown
# heavy 2: not shown
# light: B1 light
# notes: as for B1
# B11: GpH7-A5/GpH7-B3 variant I332_13S/GpL16-k0 (antibody, human IgG1, kappa)
# heavy 1: not shown
# heavy 2: not shown
# light: B1 light
# notes: as for B1
# B12: GpH7-A5/GpH7-B3 variant I332_02A/GpL16-k0 (antibody, human IgG1, kappa)
# heavy 1: not shown
# heavy 2: not shown
# light: B1 light
# notes: as for B1
# B13: GpH7-A5/GpH7-B3 variant E333_20W/GpL16-k0 (antibody, human IgG1, kappa)
# heavy 1: not shown
# heavy 2: not shown
# light: B1 light
# notes: as for B1
# B14: GpH7-A5/GpH7-B3 variant I332_09D/GpL16-k0 (antibody, human IgG1, kappa)
# heavy 1: not shown
# heavy 2: not shown
# light: B1 light
# notes: as for B1
# Target: T4, FcγRIa extracellular domain with C-terminal His tag (human, UniProt P12314 16-292)
# T4 construct: extracellular domain; also called 1a; CD64
# T4 sequence (P12314 other isoform, or with tags, fused parts or gaps): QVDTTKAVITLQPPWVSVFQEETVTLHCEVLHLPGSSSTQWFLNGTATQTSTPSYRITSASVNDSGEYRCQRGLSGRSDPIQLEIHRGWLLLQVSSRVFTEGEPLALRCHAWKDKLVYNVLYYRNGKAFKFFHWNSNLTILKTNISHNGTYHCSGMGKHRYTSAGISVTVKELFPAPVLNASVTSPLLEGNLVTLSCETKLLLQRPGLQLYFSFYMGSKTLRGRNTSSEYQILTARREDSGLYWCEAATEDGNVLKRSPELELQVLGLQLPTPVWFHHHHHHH
# Experiment: SPR; % of GpH7-A5/GpH7-B3/GpL16-k0
row,He/Con 1a,Binder
1,91.4%,B1
2,104%,B2
3,102%,B3
4,93.7%,B4
5,106%,B5
6,100%,B6
7,99.2%,B7
8,105%,B8
9,102%,B9
10,109%,B10
11,97.3%,B11
12,100%,B12
13,93.9%,B13
14,106%,B14

# Target: T1, FcγRIIa(R) extracellular domain with …
# Experiment: SPR; % of GpH7-A5/GpH7-B3/GpL16-k0
row,He/Con 2aR,Binder
1,118%,B1
2,91%,B2
3,92.2%,B3
4,130%,B4
5,104%,B5
6,87%,B6
7,80.5%,B7
8,108%,B8
9,73.5%,B9
10,113%,B10
11,97.9%,B11
12,96.9%,B12
13,132%,B13
14,118%,B14

# Target: T2, FcγRIIa(H) extracellular domain with …
# Experiment: SPR; % of GpH7-A5/GpH7-B3/GpL16-k0
row,He/Con 2aH,Binder
1,110%,B1
2,94.9%,B2
3,102%,B3
4,113%,B4
5,108%,B5
6,108%,B6
7,69.9%,B7
8,114%,B8
9,104%,B9
10,112%,B10
11,113%,B11
12,115%,B12
13,106%,B13
14,122%,B14

# Target: T3, FcγRIIb extracellular domain with …
# Experiment: SPR; % of GpH7-A5/GpH7-B3/GpL16-k0
row,He/Con 2b,Binder
1,98.2%,B1
2,91.3%,B2
3,96.6%,B3
4,110%,B4
5,115%,B5
6,89.5%,B6
7,83.7%,B7
8,116%,B8
9,60.9%,B9
10,158%,B10
11,109%,B11
12,114%,B12
13,116%,B13
14,163%,B14

# Target: T5, FcγRIIIa extracellular domain with C-terminal His tag (human, UniProt P08637 17-208)
# T5 construct: extracellular domain; also called 3a; CD16
# T5 sequence (P08637 other isoform, or with tags, fused parts or gaps): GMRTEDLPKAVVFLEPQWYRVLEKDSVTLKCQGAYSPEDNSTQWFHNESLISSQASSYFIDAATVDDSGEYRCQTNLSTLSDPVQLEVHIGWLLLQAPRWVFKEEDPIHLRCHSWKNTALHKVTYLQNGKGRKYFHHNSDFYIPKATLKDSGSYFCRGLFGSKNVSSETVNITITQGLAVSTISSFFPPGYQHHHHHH
# Experiment: SPR; % of GpH7-A5/GpH7-B3/GpL16-k0
row,He/Con 3a,Binder
1,76.2%,B1
2,76%,B2
3,101%,B3
4,101%,B4
5,89.3%,B5
6,85.2%,B6
7,56.3%,B7
8,92.5%,B8
9,78.1%,B9
10,213%,B10
11,95.6%,B11
12,103%,B12
13,104%,B13
14,189%,B14
